Assay results from the supplement of paper PMC9112550, “Optimization of the antimicrobial peptide Bac7 by deep mutational scanning” (BMC Biology, 2022).

tested on: Escherichia coli TOP10; experiment: shrunken log2 fold change of peptide-encoding DNA abundance (4.5 h post-induction vs induction); higher = less antimicrobial activity (less host growth inhibition); settings: time post-induction: 4.5 h; library: site-saturation at positions 5, 18, 19, 20
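Further: peptides expressed intracellularly from a pBAD plasmid library in pooled LB shake-flask culture, induced with 0.3% L-arabinose, DNA abundance read by NGS, three biological replicates, DESeq2 with apeglm shrinkage.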

Sequence | shrunken log2 fold change
RRIRERPPRLPRPRPRPGVSPRP | -0.00674
RRIRERPPRLPRPRPRPRADPRP | 0.0209
RRIRYRPPRLPRPRPRPLVMPRP | -0.372
RRIRFRPPRLPRPRPRPRHLPRP | -0.0297
RRIRFRPPRLPRPRPRPVSLPRP | -0.00718
RRIRKRPPRLPRPRPRPKCFPRP | 0.00084
RRIRHRPPRLPRPRPRPCNLPRP | -0.135
RRIRYRPPRLPRPRPRPGIHPRP | -0.467
RRIRSRPPRLPRPRPRPTKHPRP | -0.151
RRIRFRPPRLPRPRPRPMYEPRP | -0.309
RRIRTRPPRLPRPRPRPRAIPRP | 0.196
RRIRERPPRLPRPRPRPQARPRP | -0.0863
RRIRFRPPRLPRPRPRPTGMPRP | 0.00753
RRIRVRPPRLPRPRPRPNPLPRP | -0.167
RRIRGRPPRLPRPRPRPTPWPRP | 0.848
RRIRHRPPRLPRPRPRPRHTPRP | -0.0794
RRIRERPPRLPRPRPRPIWYPRP | 0.0381
RRIRWRPPRLPRPRPRPDTKPRP | 0.00587
RRIRMRPPRLPRPRPRPWDLPRP | 0.36
RRIRERPPRLPRPRPRPYAFPRP | -0.961
RRIRERPPRLPRPRPRPGIHPRP | -0.502
RRIRYRPPRLPRPRPRPGPNPRP | 0.205

Sequence | shrunken log2 fold change
RRIRGRPPRLPRPRPRPRGMPRP | 0.939
RRIRERPPRLPRPRPRPLGQPRP | 0.0127
RRIRARPPRLPRPRPRPEYCPRP | 0.409
RRIRLRPPRLPRPRPRPTQEPRP | 0.0081
RRIRTRPPRLPRPRPRPSRQPRP | 0.15
RRIRVRPPRLPRPRPRPPMVPRP | 0.0314
RRIRNRPPRLPRPRPRPNYGPRP | -0.0781
RRIRERPPRLPRPRPRPGNCPRP | 0.13
RRIRNRPPRLPRPRPRPGKLPRP | -0.0284
RRIRLRPPRLPRPRPRPQNVPRP | -0.523
RRIRPRPPRLPRPRPRPKYMPRP | 1.72
RRIRWRPPRLPRPRPRPSFKPRP | -0.226
RRIRARPPRLPRPRPRPRPPPRP | 1.26
RRIRNRPPRLPRPRPRPNWWPRP | -0.0262
RRIRDRPPRLPRPRPRPPITPRP | -0.217
RRIRNRPPRLPRPRPRPQMNPRP | -0.614
RRIRARPPRLPRPRPRPTFGPRP | 0.416
RRIRCRPPRLPRPRPRPNDHPRP | -0.716
RRIRKRPPRLPRPRPRPLMRPRP | 1.35
RRIRVRPPRLPRPRPRPPDVPRP | -0.286
RRIRKRPPRLPRPRPRPENMPRP | 0.11
RRIRMRPPRLPRPRPRPSYPPRP | -0.412

Sequence | shrunken log2 fold change
RRIRDRPPRLPRPRPRPEYQPRP | 0.637
RRIRVRPPRLPRPRPRPYDNPRP | -0.199
RRIRFRPPRLPRPRPRPNFHPRP | -0.218
RRIRWRPPRLPRPRPRPTPKPRP | 0.627
RRIRARPPRLPRPRPRPIHIPRP | -0.24
RRIRCRPPRLPRPRPRPMGCPRP | -0.0697
RRIRSRPPRLPRPRPRPRPEPRP | 0.507
RRIRQRPPRLPRPRPRPHNTPRP | -0.902
RRIRRRPPRLPRPRPRPQLWPRP | 0.146
RRIRCRPPRLPRPRPRPYFVPRP | -1.13
RRIRPRPPRLPRPRPRPMWFPRP | -0.113
RRIRRRPPRLPRPRPRPSECPRP | -0.039
RRIRSRPPRLPRPRPRPINSPRP | 0.0337
RRIRMRPPRLPRPRPRPPLMPRP | 1.34
RRIRRRPPRLPRPRPRPCEHPRP | -0.212
RRIRIRPPRLPRPRPRPAQSPRP | 0.227
RRIRYRPPRLPRPRPRPRRMPRP | -0.0427
RRIRYRPPRLPRPRPRPCCLPRP | -0.203
RRIRGRPPRLPRPRPRPEWDPRP | 1.56
RRIRLRPPRLPRPRPRPWDYPRP | 0.0642
RRIRIRPPRLPRPRPRPDGYPRP | -0.00133
RRIRWRPPRLPRPRPRPHLKPRP | -0.0706

Sequence | shrunken log2 fold change
RRIRHRPPRLPRPRPRPSKIPRP | -0.517
RRIRRRPPRLPRPRPRPHHPPRP | -0.0853
RRIRDRPPRLPRPRPRPGMDPRP | 0.216
RRIRTRPPRLPRPRPRPKGPPRP | 0.0618
RRIRDRPPRLPRPRPRPGFWPRP | 0.493
RRIRVRPPRLPRPRPRPETQPRP | 0.259
RRIRERPPRLPRPRPRPIQVPRP | -0.0549
RRIRYRPPRLPRPRPRPANLPRP | -1.19
RRIRLRPPRLPRPRPRPHPNPRP | -0.247
RRIRNRPPRLPRPRPRPSRGPRP | 0.513
RRIRRRPPRLPRPRPRPIVVPRP | 0.115
RRIRSRPPRLPRPRPRPYKYPRP | -0.637
RRIRYRPPRLPRPRPRPQRGPRP | -0.123
RRIRIRPPRLPRPRPRPIRPPRP | -0.277
RRIRARPPRLPRPRPRPCGIPRP | 0.23
RRIRDRPPRLPRPRPRPPQGPRP | 0.289
RRIRKRPPRLPRPRPRPMMDPRP | 0.0443
RRIRHRPPRLPRPRPRPCFWPRP | -0.0857
RRIRPRPPRLPRPRPRPCPVPRP | -0.0845
RRIRPRPPRLPRPRPRPDPMPRP | 0.4
RRIRIRPPRLPRPRPRPDMEPRP | 0.0763
RRIRGRPPRLPRPRPRPKQKPRP | -0.0523

Sequence | shrunken log2 fold change
RRIRGRPPRLPRPRPRPCASPRP | 0.557
RRIRKRPPRLPRPRPRPQPRPRP | 0.752
RRIRNRPPRLPRPRPRPLYHPRP | -0.941
RRIRSRPPRLPRPRPRPYMQPRP | -0.145
RRIRCRPPRLPRPRPRPMCRPRP | -0.274
RRIRNRPPRLPRPRPRPDNDPRP | -0.579
RRIRDRPPRLPRPRPRPSKFPRP | -0.105
RRIRPRPPRLPRPRPRPYAIPRP | -0.219
RRIRSRPPRLPRPRPRPGSLPRP | -0.0216
RRIRRRPPRLPRPRPRPSRHPRP | 0.319
RRIRKRPPRLPRPRPRPPDTPRP | 0.896
RRIRWRPPRLPRPRPRPEAMPRP | 0.142
RRIRRRPPRLPRPRPRPVPRPRP | 0.518
RRIRGRPPRLPRPRPRPRETPRP | 1.86
RRIRGRPPRLPRPRPRPCNDPRP | 0.376
RRIRPRPPRLPRPRPRPITSPRP | -0.354
RRIRKRPPRLPRPRPRPKYFPRP | -0.098
RRIRQRPPRLPRPRPRPCHLPRP | -0.0134
RRIRTRPPRLPRPRPRPDFLPRP | -0.169
RRIRDRPPRLPRPRPRPPNYPRP | -0.147
RRIRIRPPRLPRPRPRPATKPRP | -0.195
